What all share (assay): positional peptide library pulldown on immobilised Nb, LC-MS of supernatant; signal ratio to control GFP-Nb (1 = not captured, near 0 = captured)
For one assay, the target named is T1, BC2T A6K.
T1 construct: positional scanning library member
T1 peptide: Ac-PDRKAKVSHWQQ-NH2
An outline of the steps: (§1)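 Unbound peptide left in supernatant after 1 h pulldown in PBS/0.01% CHAPS measured by reversed-phase LC-MS (8–30% eluent B gradient, 20 min).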

For a further assay, the target named is T2, BC2T A5T.
T2 construct: positional scanning library member
T2 peptide: Ac-PDRKTAVSHWQQ-NH2
Summed up: as §1

The target in a further assay is T3, BC2T K4N.
T3 construct: positional scanning library member
T3 peptide: Ac-PDRNAAVSHWQQ-NH2
Summed up:
as §1

The next assay concerns the target T4, BC2T K4E.
T4 construct: positional scanning library member
T4 peptide: Ac-PDREAAVSHWQQ-NH2
Summed up:
as §1

For a further assay, the target named is T5, BC2T A5Q.
T5 construct: positional scanning library member
T5 peptide: Ac-PDRKQAVSHWQQ-NH2
An outline of the steps:
as §1

The target of the next assay is T6, BC2T P1W.
T6 construct: positional scanning library member
T6 peptide: Ac-WDRKAAVSHWQQ-NH2
Summed up:
as §1

Another assay addresses T7, BC2T A6D.
T7 construct: positional scanning library member
T7 peptide: Ac-PDRKADVSHWQQ-NH2
Summed up: as §1

The target in another assay is T8, BC2T P1D.
T8 construct: positional scanning library member
T8 peptide: Ac-DDRKAAVSHWQQ-NH2
An outline of the steps: as §1

In a further assay the target is T9, BC2T V7E.
T9 construct: positional scanning library member
T9 peptide: Ac-PDRKAAESHWQQ-NH2
An outline of the steps: as §1

For a further assay, the target named is T10, BC2T V7R.
T10 construct: positional scanning library member
T10 peptide: Ac-PDRKAARSHWQQ-NH2
An outline of the steps: as §1

The target of another assay is T11, BC2T R3N.
T11 construct: positional scanning library member
T11 peptide: Ac-PDNKAAVSHWQQ-NH2
An outline of the steps:
as §1

For another assay, the target named is T12, BC2T R3P.
T12 construct: positional scanning library member
T12 peptide: Ac-PDPKAAVSHWQQ-NH2
Summed up:
as §1

Another assay concerns the target T13, BC2T K4Y.
T13 construct: positional scanning library member
T13 peptide: Ac-PDRYAAVSHWQQ-NH2
Summed up: as §1

The next assay has as its target T14, BC2T A6C(Abu) (SMILES …).
T14 construct: positional scanning library member
T14 peptide: Ac-PDRKA[GABA]VSHWQQ-NH2
Summed up:
as §1

A further assay deals with T15, BC2T A5R.
T15 construct: positional scanning library member
T15 peptide: Ac-PDRKRAVSHWQQ-NH2
An outline of the steps:
as §1

The target of a further assay is T16, BC2T A5C(Abu) (SMILES …).
T16 construct: positional scanning library member
T16 peptide: Ac-PDRK[GABA]AVSHWQQ-NH2
Summed up: as §1

In another assay the target is T17, BC2T A5E.
T17 construct: positional scanning library member
T17 peptide: Ac-PDRKEAVSHWQQ-NH2
Summed up:
as §1

Another assay concerns the target T18, BC2T K4S.
T18 construct: positional scanning library member
T18 peptide: Ac-PDRSAAVSHWQQ-NH2
An outline of the steps: as §1

The target of a further assay is T19, BC2T K4P.
T19 construct: positional scanning library member
T19 peptide: Ac-PDRPAAVSHWQQ-NH2
An outline of the steps:
as §1

A further assay deals with T20, BC2T P1C(Abu) (SMILES …).
T20 construct: positional scanning library member
T20 peptide: Ac-[GABA]DRKAAVSHWQQ-NH2
Summed up: as §1

The next assay concerns the target T21, BC2T S8E.
T21 construct: positional scanning library member
T21 peptide: Ac-PDRKAAVEHWQQ-NH2
Summed up:
as §1

Positions count from the first letter of the chain named. Square brackets hold non-standard residues; d marks the D form. GABA = NCCCC(=O)O

B1: BC2-NbR106E (VHH)
VHH: QVQLVESGGGLVQPGGSLTLSCTASGFTLDHYDIGWFRQAPGKEREGVSCINNSDDDTYYADSVKGRFTIFMDNAKDTVYLQMNSLKPEDTAIYYCAEARGCKRGEYEYDFWGQGTQVTVSS
notes: headlock mutant of BC2-Nb; immobilised on beads in this assay
In the case of B1, the ratio was found to be 0.9 with BC2T A6K; 0.1 in the assay with BC2T A5T; 0.8 with BC2T K4N; 0.9 with BC2T K4E; 0.2 in the assay with BC2T A5Q; 0.2 with BC2T P1W. In addition, the ratio was 1 in the assay with BC2T A6D; 0.8 with BC2T P1D; 0.9 with BC2T V7E; 0.1 in the assay with BC2T V7R; 0.9 with BC2T R3N; 1 with BC2T R3P. Moreover, the ratio is 0.3 in the assay with BC2T K4Y; 0.1 with BC2T A6C(Abu); 0 with BC2T A5R; 0.1 with BC2T A5C(Abu); 0.8 in the assay with BC2T A5E; 0.6 in the assay with BC2T K4S. The ratio with BC2T K4P amounted to 1; with BC2T P1C(Abu), 0.2.

B2: BC2 nanobody (VHH)
VHH: B1 VHH with E106R
notes: immobilised on beads in this assay; also called BC2-Nb; BC2 nanotrap (immobilised)
For the molecule B2, the ratio with BC2T S8E worked out at 0.7.

The values above are taken from patent publication US20170137467A1 (CHROMOTEK, published 2017).
